The target in test [1] is cytochrome c oxidase (complex IV) (rat (endogenous in rat liver mitoplasts)). The settings on record: for Amax of the cytochrome c oxidase reaction, rat liver mitoplasts without cytochrome c: scale: μg atom of the oxygen/min per 1 mg of the protein.
Test [2] has as its target ubiquinol–cytochrome c reductase (complex III) (rat (endogenous in rat liver mitoplasts)). The settings on record: for Amax of the succinate:cytochrome c reductase reaction, rat liver mitoplasts without cytochrome c: scale: μmol of the cyt c /min × mg of the protein.

In the case of “horse cytochrome c I81L/F82S/A83S/G84A (from UniProt P00004 1-105) (natural protein)”, in test [1], the Amax(mut)/Amax(wt) of the cytochrome c oxidase reaction worked out at 92.1%; the Km of the cytochrome c oxidase reaction, rat liver mitoplasts without cytochrome c is 5.77 μM of cyt c; the Amax of the cytochrome c oxidase reaction, rat liver mitoplasts without cytochrome c turned out to be 0.675. In addition, in test [2], the Amax(mut)/Amax(wt) of the succinate:cytochrome c reductase reaction is 44.7%; the Km of the succinate:cytochrome c reductase reaction, rat liver mitoplasts without cytochrome c is 20.7 μM of cyt c; the Amax of the succinate:cytochrome c reductase reaction, rat liver mitoplasts without cytochrome c is 0.055.

“horse cytochrome c K79V/I81L/F82R (from UniProt P00004 1-105) (natural protein)”: in test [1], the Amax(mut)/Amax(wt) of the cytochrome c oxidase reaction was determined as 97.8%; the Km of the cytochrome c oxidase reaction, rat liver mitoplasts without cytochrome c is 6.19 μM of cyt c; the Amax of the cytochrome c oxidase reaction, rat liver mitoplasts without cytochrome c turned out to be 0.717. In addition, in test [2], the Amax(mut)/Amax(wt) of the succinate:cytochrome c reductase reaction worked out at 8.1%; the Km of the succinate:cytochrome c reductase reaction, rat liver mitoplasts without cytochrome c is 1.24 μM of cyt c; the Amax of the succinate:cytochrome c reductase reaction, rat liver mitoplasts without cytochrome c is 0.01.

Consider “horse cytochrome c T78N/K79Y/M80I/I81M/F82N (from UniProt P00004 1-105) (natural protein)”, for which, in test [1], the Amax(mut)/Amax(wt) of the cytochrome c oxidase reaction is 38.6%; the Km of the cytochrome c oxidase reaction, rat liver mitoplasts without cytochrome c is 4.96 μM of cyt c; the Amax of the cytochrome c oxidase reaction, rat liver mitoplasts without cytochrome c amounted to 0.283. For the same substance, in test [2], the Amax(mut)/Amax(wt) of the succinate:cytochrome c reductase reaction came to 6.5%; the Km of the succinate:cytochrome c reductase reaction, rat liver mitoplasts without cytochrome c is 11 μM of cyt c; the Amax of the succinate:cytochrome c reductase reaction, rat liver mitoplasts without cytochrome c amounted to 0.008.

In the case of “horse cytochrome c T78A/K79A/I81A/F82T (from UniProt P00004 1-105) (natural protein)”, in test [1], the Amax(mut)/Amax(wt) of the cytochrome c oxidase reaction stood at 61.8%; the Km of the cytochrome c oxidase reaction, rat liver mitoplasts without cytochrome c was 5.31 μM of cyt c; the Amax of the cytochrome c oxidase reaction, rat liver mitoplasts without cytochrome c amounted to 0.453. In test [2], the Amax(mut)/Amax(wt) of the succinate:cytochrome c reductase reaction was found to be 3.2%; the Km of the succinate:cytochrome c reductase reaction, rat liver mitoplasts without cytochrome c was 8.94 μM of cyt c; the Amax of the succinate:cytochrome c reductase reaction, rat liver mitoplasts without cytochrome c turned out to be 0.004.

Turning to “horse cytochrome c I75G/G77R/T78I (from UniProt P00004 1-105) (natural protein)”, in test [1], the Amax(mut)/Amax(wt) of the cytochrome c oxidase reaction was found to be 86.7%; the Km of the cytochrome c oxidase reaction, rat liver mitoplasts without cytochrome c was 6.47 μM of cyt c; the Amax of the cytochrome c oxidase reaction, rat liver mitoplasts without cytochrome c stood at 0.636. In addition, in test [2], the Amax(mut)/Amax(wt) of the succinate:cytochrome c reductase reaction was 19.5%; the Km of the succinate:cytochrome c reductase reaction, rat liver mitoplasts without cytochrome c was 20.7 μM of cyt c; the Amax of the succinate:cytochrome c reductase reaction, rat liver mitoplasts without cytochrome c is 0.024.

Turning to “horse cytochrome c T78S/K79P (from UniProt P00004 1-105) (natural protein)”, in test [1], the Amax(mut)/Amax(wt) of the cytochrome c oxidase reaction was 47.5%; the Km of the cytochrome c oxidase reaction, rat liver mitoplasts without cytochrome c is 5.04 μM of cyt c; the Amax of the cytochrome c oxidase reaction, rat liver mitoplasts without cytochrome c was 0.348. Moreover, in test [2], the Amax(mut)/Amax(wt) of the succinate:cytochrome c reductase reaction was determined as 3.2%; the Km of the succinate:cytochrome c reductase reaction, rat liver mitoplasts without cytochrome c was 17.4 μM of cyt c; the Amax of the succinate:cytochrome c reductase reaction, rat liver mitoplasts without cytochrome c was 0.004.

With “horse cytochrome c T78A/K79A/I81A/F82T/T89A (from UniProt P00004 1-105) (natural protein)”, in test [1], the Amax(mut)/Amax(wt) of the cytochrome c oxidase reaction is 92.3%; the Km of the cytochrome c oxidase reaction, rat liver mitoplasts without cytochrome c is 5.31 μM of cyt c; the Amax of the cytochrome c oxidase reaction, rat liver mitoplasts without cytochrome c is 0.677. In addition, in test [2], the Amax(mut)/Amax(wt) of the succinate:cytochrome c reductase reaction amounted to 2.4%; the Km of the succinate:cytochrome c reductase reaction, rat liver mitoplasts without cytochrome c was 5.08 μM of cyt c; the Amax of the succinate:cytochrome c reductase reaction, rat liver mitoplasts without cytochrome c is 0.003.

On to “wild-type horse cytochrome c (from UniProt P00004 1-105) (natural protein)”, for which, in test [1], the Km of the cytochrome c oxidase reaction, rat liver mitoplasts without cytochrome c is 5.4 μM of cyt c and the Amax of the cytochrome c oxidase reaction, rat liver mitoplasts without cytochrome c was found to be 0.733. In test [2], the Km of the succinate:cytochrome c reductase reaction, rat liver mitoplasts without cytochrome c is 20.9 μM of cyt c and the Amax of the succinate:cytochrome c reductase reaction, rat liver mitoplasts without cytochrome c was 0.123.

As to “horse cytochrome c I81Y/A83Y/G84N (from UniProt P00004 1-105) (natural protein)”, in test [1], the Amax(mut)/Amax(wt) of the cytochrome c oxidase reaction was 23.6%; the Km of the cytochrome c oxidase reaction, rat liver mitoplasts without cytochrome c was 5 μM of cyt c; the Amax of the cytochrome c oxidase reaction, rat liver mitoplasts without cytochrome c came to 0.173. Besides, in test [2], the Amax(mut)/Amax(wt) of the succinate:cytochrome c reductase reaction amounted to 13%; the Km of the succinate:cytochrome c reductase reaction, rat liver mitoplasts without cytochrome c is 24.7 μM of cyt c; the Amax of the succinate:cytochrome c reductase reaction, rat liver mitoplasts without cytochrome c worked out at 0.016.

(Values after article PMC5451065.)
